T1: AcrVIA1-3xFLAG
T1 sequence: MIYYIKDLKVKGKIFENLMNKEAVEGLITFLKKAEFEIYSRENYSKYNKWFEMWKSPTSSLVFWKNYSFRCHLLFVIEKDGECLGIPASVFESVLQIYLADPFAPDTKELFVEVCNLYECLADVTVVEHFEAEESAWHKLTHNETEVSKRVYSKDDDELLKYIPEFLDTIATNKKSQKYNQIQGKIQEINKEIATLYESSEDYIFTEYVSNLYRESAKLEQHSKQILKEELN

T2: AcrVIA1
T2 sequence: T1 sequence

T3: AcrVIA1
T3 chain: T1 sequence

T4: AcrVIA1-3xFLAG
T4 chain: T1 sequence

B1: Leptotrichia buccalis Cas13a (protein)
chain: MKVTKVGGISHKKYTSEGRLVKSESEENRTDERLSALLNMRLDMYIKNPSSTETKENQKRIGKLKKFFSNKMVYLKDNTLSLKNGKKENIDREYSETDILESDVRDKKNFAVLKKIYLNENVNSEELEVFRNDIKKKLNKINSLKYSFEKNKANYQKINENNIEKVEGKSKRNIIYDYYRESAKRDAYVSNVKEAFDKLYKEEDIAKLVLEIENLTKLEKYKIREFYHEIIGRKNDKENFAKIIYEEIQNVNNMKELIEKVPDMSELKKSQVFYKYYLDKEELNDKNIKYAFCHFVEIEMSQLLKNYVYKRLSNISNDKIKRIFEYQNLKKLIENKLLNKLDTYVRNCGKYNYYLQDGEIATSDFIARNRQNEAFLRNIIGVSSVAYFSLRNILETENENDITGRMRGKTVKNNKGEEKYVSGEVDKIYNENKKNEVKENLKMFYSYDFNMDNKNEIEDFFANIDEAISSIRHGIVHFNLELEGKDIFAFKNIAPSEISKKMFQNEINEKKLKLKIFRQLNSANVFRYLEKYKILNYLKRTRFEFVNKNIPFVPSFTKLYSRIDDLKNSLGIYWKTPKTNDDNKTKEIIDAQIYLLKNIYYGEFLNYFMSNNGNFFEISKEIIELNKNDKRNLKTGFYKLQKFEDIQEKIPKEYLANIQSLYMINAGNQDEEEKDTYIDFIQKIFLKGFMTYLANNGRLSLIYIGSDEETNTSLAEKKQEFDKFLKKYEQNNNIKIPYEINEFLREIKLGNILKYTERLNMFYLILKLLNHKELTNLKGSLEKYQSANKEEAFSDQLELINLLNLDNNRVTEDFELEADEIGKFLDFNGNKVKDNKELKKFDTNKIYFDGENIIKHRAFYNIKKYGMLNLLEKIADKAGYKISIEELKKYSNKKNEIEKNHKMQENLHRKYARPRKDEKFTDEDYESYKQAIENIEEYTHLKNKVEFNELNLLQGLLLRILHRLVGYTSIWERDLRFRLKGEFPENQYIEEIFNFENKKNVKYKGGQIVEKYIKFYKELHQNDEVKINKYSSANIKVLKQEKKDLYIRNYIAHFNYIPHAEISLLEVLENLRKLLSYDRKLKNAVMKSVVDILKEYGFVATFKIGADKKIGIQTLESEKIVHLKNLKKKKLMTDRNSEELCKLVKIMFEYKMEEKKSEN

How the values were obtained:
AcrVIA1-3xFLAG [1] = test system: T1, AcrVIA1-3xFLAG
AcrVIA1 [2] = test system: T2, AcrVIA1
AcrVIA1 [3] = target: T3, AcrVIA1
AcrVIA1-3xFLAG [4] = target: T4, AcrVIA1-3xFLAG

Row | Molecule | cis- and trans-RNA cleavage in vitro (FIG. 2A-B) (AcrVIA1-3xFLAG [1]) | cis-RNase activity: cleavage of radiolabeled target RNA in vitro (AcrVIA1 [2]) | nonspecific cleavage of labeled non-target RNA, AcrVIA1 added before target RNA ("Acr first" lane) (AcrVIA1 [2]) | trans-cleavage of a labeled non-target RNA upon addition of unlabeled protospacer RNA in vitro (AcrVIA1 [2]) | cis-RNA cleavage of spc2-target RNA by L. buccalis Cas13a (10 nM) with AcrVIA1 at 400, 100, 10 or 1 nM (AcrVIA1 [3]) | cis-RNA cleavage of spc2-target RNA by L. buccalis Cas13a (10 nM) with AcrVIA1-3xFLAG at 400, 100, 10 or 1 nM (AcrVIA1-3xFLAG [4])
1 | L. seeligeri Cas13a-His6 | confirmed that both are active in vivo ... and in vitro (FIG. 2A-B) | In the presence of excess AcrVIA1, however, target RNA cleavage was inhibited | if the AcrVIA1 inhibitor is added to the reaction containing Cas13 before adding the target RNA, then AcrVIA1 prevents target RNA binding and no Cas13 activity is observed | AcrVIA1 inhibited Cas13a-mediated trans-cleavage of a labeled non-target RNA | – | –
2 | B1 | – | – | – | – | Addition of AcrVIA1 had no effect on protospacer RNA cleavage by purified L. buccalis Cas13a^crRNA | AcrVIA1 does not inhibit Leptotrichia buccalis Cas13a
